Experimental data reported in patent US20220227830A1, “QD DOSING OF GIP RECEPTOR AGONIST PEPTIDE COMPOUNDS AND USES THEREOF” (Takeda Pharmaceutical Company Limited, priority 2020, published 2022).
Starred links: 1 amine or outer side, 2 acyl side, 3 side chain; linkers in the order of their positions; H or OH if unused. Non-standard residues stand in square brackets, D forms with d. Groups on a side chain read outwards from the residue. No end group written: not given here. *: point of attachment. C16 diacid = O=C(O)CCCCCCCCCCCCCCC(=O)*; C15 diacid = O=C(O)CCCCCCCCCCCCCC(=O)*; γGlu = O=C(O)[C@H](CCC(=O)[*:2])N[*:1]; NMeY = CN[C@@H](Cc1ccc(O)cc1)C(=O)O; AEEA = NCCOCCOCC(=O)O; Aib = CC(C)(N)C(=O)O

B1: Compound 23 (peptide)
peptide: [NMeY][Aib]EGTFISDYSIAK([AEEA-γGlu-γGlu-γGlu-C15 diacid])DR[Aib]AQ[Aib]NFVNWLLAQK-NH2
modifications: N-terminus assumed
SMILES: CC[C@H](C)[C@H](NC(=O)[C@H](CO)NC(=O)[C@H](Cc1ccc(O)cc1)NC(=O)[C@H](CC(=O)O)NC(=O)[C@H](CO)NC(=O)[C@@H](NC(=O)[C@H](Cc1ccccc1)NC(=O)[C@@H](NC(=O)CNC(=O)[C@H](CCC(=O)O)NC(=O)C(C)(C)NC(=O)[C@H](Cc1ccc(O)cc1)NC)[C@@H](C)O)[C@@H](C)CC)C(=O)N[C@@H](C)C(=O)N[C@@H](CCCCNC(=O)COCCOCCNC(=O)CC[C@H](NC(=O)CC[C@H](NC(=O)CC[C@H](NC(=O)CCCCCCCCCCCCCC(=O)O)C(=O)O)C(=O)O)C(=O)O)C(=O)N[C@@H](CC(=O)O)C(=O)N[C@@H](CCCNC(=N)N)C(=O)NC(C)(C)C(=O)N[C@@H](C)C(=O)N[C@@H](CCC(N)=O)C(=O)NC(C)(C)C(=O)N[C@@H](CC(N)=O)C(=O)N[C@@H](Cc1ccccc1)C(=O)N[C@H](C(=O)N[C@@H](CC(N)=O)C(=O)N[C@@H](Cc1c[nH]c2ccccc12)C(=O)N[C@@H](CC(C)C)C(=O)N[C@@H](CC(C)C)C(=O)N[C@@H](C)C(=O)N[C@@H](CCC(N)=O)C(=O)N[C@@H](CCCCN)C(N)=O)C(C)C
B2: Compound 21 (peptide)
peptide: [NMeY][Aib]EGTFISDYSI[Aib]LDR[Aib]AQ[Aib]NFVNWLLAQK([AEEA-AEEA-γGlu-γGlu-C15 diacid])PSSGAPPPS-NH2
modifications: N-terminus assumed
SMILES: CC[C@H](C)[C@H](NC(=O)[C@H](Cc1ccccc1)NC(=O)[C@@H](NC(=O)CNC(=O)[C@H](CCC(=O)O)NC(=O)C(C)(C)NC(=O)[C@H](Cc1ccc(O)cc1)NC)[C@@H](C)O)C(=O)N[C@@H](CO)C(=O)N[C@@H](CC(=O)O)C(=O)N[C@@H](Cc1ccc(O)cc1)C(=O)N[C@@H](CO)C(=O)N[C@H](C(=O)NC(C)(C)C(=O)N[C@@H](CC(C)C)C(=O)N[C@@H](CC(=O)O)C(=O)N[C@@H](CCCNC(=N)N)C(=O)NC(C)(C)C(=O)N[C@@H](C)C(=O)N[C@@H](CCC(N)=O)C(=O)NC(C)(C)C(=O)N[C@@H](CC(N)=O)C(=O)N[C@@H](Cc1ccccc1)C(=O)N[C@H](C(=O)N[C@@H](CC(N)=O)C(=O)N[C@@H](Cc1c[nH]c2ccccc12)C(=O)N[C@@H](CC(C)C)C(=O)N[C@@H](CC(C)C)C(=O)N[C@@H](C)C(=O)N[C@@H](CCC(N)=O)C(=O)N[C@@H](CCCCNC(=O)COCCOCCNC(=O)COCCOCCNC(=O)CC[C@H](NC(=O)CC[C@H](NC(=O)CCCCCCCCCCCCCC(=O)O)C(=O)O)C(=O)O)C(=O)N1CCC[C@H]1C(=O)N[C@@H](CO)C(=O)N[C@@H](CO)C(=O)NCC(=O)N[C@@H](C)C(=O)N1CCC[C@H]1C(=O)N1CCC[C@H]1C(=O)N1CCC[C@H]1C(=O)N[C@@H](CO)C(N)=O)C(C)C)[C@@H](C)CC

What was measured:
dog plasma proteins = test: plasma protein binding, ultracentrifugation of spiked plasma, LC-MS/MS
human plasma proteins [1] = test: as above
human plasma proteins [2] = test: plasma protein binding; spiked human plasma, ultracentrifugation, LC-MS/MS

| Binder | Dog PPB (Fu,plasma), fraction unbound (fraction unbound) (dog plasma proteins) | Human PPB (Fu,plasma), fraction unbound (fraction unbound) (human plasma proteins [1]) | percent of unbound drug in plasma (human plasma proteins [2]) [%] | proportion of the drug being bound (human plasma proteins [2]) [%] |
| --- | --- | --- | --- | --- |
| [NMeY][Aib]EGTFISDYSIAK([AEEA-AEEA-γGlu-γGlu-C15 diacid])DR[Aib]AQ[Aib]NFVNWLLAQS [Compound 16] | 0.0151 | 0.0441 |  |  |
| B1 |  | 0.0734 | 7.3 | 92.7 |
| B2 | 0.037 | 0.0414 |  |  |
| [NMeY][Aib]EGTFISDYSIALDR[Aib]K([AEEA-AEEA-γGlu-γGlu-C16 diacid])Q[Aib]NFVNWLLAQSPSSGAPPPS-NH2 [Compound 119] | 0.0105 | 0.0185 |  |  |
| [NMeY][Aib]EGTFISDYSI[Aib]LDRK([AEEA-AEEA-γGlu-γGlu-C15 diacid])AQ[Aib]NFVNWLLAQRPSSGAPPPS-NH2 (not fully specified (N-terminus)) [Compound 20] | 0.0021 | 0.0013 | 0.1 |  |
